T1: CD276 on HEK293T cells (UniProt Q5ZPR3 29-534, limits assumed)
T1 construct: whole, on cells
T1 sequence (looked up): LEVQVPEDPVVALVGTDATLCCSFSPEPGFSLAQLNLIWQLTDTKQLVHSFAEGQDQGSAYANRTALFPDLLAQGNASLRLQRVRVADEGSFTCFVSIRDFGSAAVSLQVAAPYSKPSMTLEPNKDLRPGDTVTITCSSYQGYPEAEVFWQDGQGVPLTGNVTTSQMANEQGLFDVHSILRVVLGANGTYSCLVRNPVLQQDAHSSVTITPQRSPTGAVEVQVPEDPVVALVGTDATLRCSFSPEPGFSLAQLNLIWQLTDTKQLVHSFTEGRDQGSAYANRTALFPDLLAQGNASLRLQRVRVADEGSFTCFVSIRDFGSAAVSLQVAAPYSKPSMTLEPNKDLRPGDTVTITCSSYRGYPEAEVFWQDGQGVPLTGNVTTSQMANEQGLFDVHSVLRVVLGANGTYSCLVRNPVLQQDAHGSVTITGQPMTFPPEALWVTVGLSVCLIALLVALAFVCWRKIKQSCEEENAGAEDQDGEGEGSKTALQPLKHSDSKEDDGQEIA

T2: bio-huCD276 (human (hu), UniProt Q5ZPR3 29-461, limits assumed, biotinylated (bio-), site not stated)
T2 construct: also called B7-H3
T2 sequence (looked up): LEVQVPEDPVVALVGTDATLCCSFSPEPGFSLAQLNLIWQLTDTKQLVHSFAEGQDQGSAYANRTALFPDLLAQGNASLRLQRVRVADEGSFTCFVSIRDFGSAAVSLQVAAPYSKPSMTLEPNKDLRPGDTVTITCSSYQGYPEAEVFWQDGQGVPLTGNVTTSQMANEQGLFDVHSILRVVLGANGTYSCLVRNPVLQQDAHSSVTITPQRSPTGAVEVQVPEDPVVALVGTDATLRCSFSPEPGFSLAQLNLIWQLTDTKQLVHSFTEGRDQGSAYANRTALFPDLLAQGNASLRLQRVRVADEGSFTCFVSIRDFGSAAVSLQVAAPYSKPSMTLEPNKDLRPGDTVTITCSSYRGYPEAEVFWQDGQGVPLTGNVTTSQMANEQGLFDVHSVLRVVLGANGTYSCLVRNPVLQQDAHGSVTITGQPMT


Tests used:
CD38 on Daudi cells = molecular target: T3, CD38 on Daudi cells (UniProt P28907 1-300, limits assumed); assay: titration binding FACS on Daudi cells
T3 construct: whole, on cells
Description: (§1) Subsequently the EC50 of antibodies samples was determined by titration binding FACS on Daudi cells (for CD38 binding evaluation), on THP-1 cells (for CD33 binding evaluation), on A-431 cells (for EGFR binding evaluation), on MKN-45 cells (for CEACAMS binding evaluation) and on HEK293T (for CD276 binding evaluation). Jurkat E6-1 or HEK293T cell lines were used as negative control, as applicable.

bio-huCD38 [1] = molecular target: T4, bio-huCD38 (human (hu), UniProt P28907 43-300, biotinylated (bio-), site not stated); assay: SPR, antigen immobilized, antibody as analyte 25-1.6 nM
Description: (§2) SPR analysis was performed on a Biocore 8K+, using a CFJB0944 CM5 sensor chip for immobilization and a SPR running buffer 1×HBS-EP+pH 7.4 (Cytiva, cat no. BR100669) according to the manufacturer's instructions.
(§3) In the second part of this example, antigen was immobilized on the chip and antibody dissolved in the SPR running buffer flowed over the chip.

bio-huCD38 [2] = molecular target: T4, bio-huCD38; assay: SPR, antibody captured on chip, antigen as analyte 200-6.25 nM
Description: as §2
(§4) In the first part of this example the antibody was immobilized on the chip and the antigen dissolved in the SPR running buffer flowed over the chip.

bio-huCD38 [3] = molecular target: T4, bio-huCD38; assay: SPR, antigen immobilized, antibody as analyte 25-1.6 nM; at the instrument's limit
bio-huCD38 [4] = molecular target: T4, bio-huCD38; assay: SPR, antigen immobilized, antibody as analyte 25-1.6 nM; estimated from ka and the limit kd
Description: as §2, §3

CD276 on HEK293T cells = molecular target: T1, CD276 on HEK293T cells; assay: titration binding FACS on HEK293T cells
Description: as §1

bio-huCD276 [5] = molecular target: T2, bio-huCD276; assay: SPR, antigen immobilized, antibody as analyte 25-1.6 nM
Description: as §2, §3

bio-huCD276 [6] = molecular target: T2, bio-huCD276; assay: SPR, antibody captured on chip, antigen as analyte 400-12.5 nM
Description: as §2, §4

Row | Binder | EC50 (CD38 on Daudi cells) [nM] | kon (bio-huCD38 [1]) [M⁻¹ s⁻¹] | Kd (bio-huCD38 [2]) [nM] | koff (bio-huCD38 [2]) [s⁻¹] | kon (bio-huCD38 [2]) [M⁻¹ s⁻¹] | koff (bio-huCD38 [3]) [s⁻¹] | Kd (bio-huCD38 [4]) [nM] | EC50 (CD276 on HEK293T cells) [nM] | Kd (bio-huCD276 [5]) [nM] | koff (bio-huCD276 [5]) [s⁻¹] | kon (bio-huCD276 [5]) [M⁻¹ s⁻¹] | Kd (bio-huCD276 [6]) [nM] | koff (bio-huCD276 [6]) [s⁻¹] | kon (bio-huCD276 [6]) [M⁻¹ s⁻¹]
1 | CD38 (Bivalent)-DOTA(Fab)-dp53 (bispecific antibody, No tetramerization domain; also called YM00005; molecule 4) light: DVQLQESGGGLVQAGGSLRLSCTGSGRTFRNYPMAWFRQAPGKEREFVAGITWVGASTLYADFAKGRFTISRDNAKNTVYLQMNSLKPEDTAVYSCAAGRGIVAGRIPAEYADWGQGTQVTVSSGGGGSGGGGSGGGGSGGGGGSQAVVIQESALTTPPGETVTLTCGSSTGAVTASNYANWVQEKPDHLFTGLIGGHNNRPPGVPARFSGSLIGDKAALTIAGTQTEDEAIYFCALWYSDHWVIGGGTRLTVLGQPKANPTVTLFPPSSEELQANKATLVCLISDFYPGAVTVAWKADGSPVKAGVETTKPSKQSNNKYAASSYLSLTPEQWKSHRSYSCQVTHEGSTVEKTVAPTECS heavy: DVQLQESGGGLVQAGGSLRLSCTGSGRTFRNYPMAWFRQAPGKEREFVAGITWVGASTLYADFAKGRFTISRDNAKNTVYLQMNSLKPEDTAVYSCAAGRGIVAGRIPAEYADWGQGTQVTVSSGGGGSGGGGSGGGGSGGGGGSHVKLQESGPGLVQPSQSLSLTCTVSGFSLTDYGVHWVRQSPGKGLEWLGVIWSGGGTAYNTALISRLNIYRDNSKNQVFLEMNSLQAEDTAMYYCARRGSYPYNYFDAWGRGTTVTVSSASTKGPSVFPLAPSSKSTSGGTAALGCLVKDYFPEPVTVSWNSGALTSGVHTFPAVLQSSGLYSLSSVVTVPSSSLGTQTYICNVNHKPSNTKVDKKVEPKSCG | 0.32 | 324000 | 25.1 | 0.00112 | 44700 | < 1e-07 | < 0.000309 |  |  |  |  |  |  | 
2 | CD276-DOTA(fab)-p53 (bispecific antibody, Tetramerizes through p53 depending on concentration; also called YM00012; molecule 11) light: DVQLVESGGGLVQPGGSLRLSCAASGFTFSRYWMGWFRQAPGKGVEWVSTINSGGGSTYYADSVKGRFTISRDNAKNTLYLQLNNLKTEDTAMYYCAKEQWRTGSRGQGTQVTVSSSGGGGSGGGGSGGGGSGGGGSQAVVIQESALTTPPGETVTLTCGSSTGAVTASNYANWVQEKPDHLFTGLIGGHNNRPPGVPARFSGSLIGDKAALTIAGTQTEDEAIYFCALWYSDHWVIGGGTRLTVLGQPKANPTVTLFPPSSEELQANKATLVCLISDFYPGAVTVAWKADGSPVKAGVETTKPSKQSNNKYAASSYLSLTPEQWKSHRSYSCQVTHEGSTVEKTVAPTECS heavy: HVKLQESGPGLVQPSQSLSLTCTVSGFSLTDYGVHWVRQSPGKGLEWLGVIWSGGGTAYNTALISRLNIYRDNSKNQVFLEMNSLQAEDTAMYYCARRGSYPYNYFDAWGRGTTVTVSSASTKGPSVFPLAPSSKSTSGGTAALGCLVKDYFPEPVTVSWNSGALTSGVHTFPAVLQSSGLYSLSSVVTVPSSSLGTQTYICNVNHKPSNTKVDKKVEPKSCGGGGSGGGGSKPLDGEYFTLQIRGRERFEMFRELNEALELKDAQAGKEPGGS |  |  |  |  |  |  |  | 2.14 | 2.5 | 2.26e-05 | 9050 | 40.1 | 0.00456 | 114000
